How the values were obtained:
[1] = test system: T cell line of each patient specifically recognizing Cry j 1 or Cry j 2; test: T cell line proliferation response to overlapping peptides ([3H] thymidine uptake); assay type: cell-based, human; conditions: 18 patients with cedar pollinosis; stimulation index 2 or more
Description: Peripheral lymphocytes from 18 patients with cedar pollinosis were stimulated by cedar pollen allergen Cry j 1 or Cry j 2to establish the T cell line of each patient capable of specifically recognizing the respective allergen.
A mixture of 5×10^4 cells of the autologous B cell line treated with mitomycin C, 2 μM of an overlapping peptide, and 2×10^4 cells of the T cell line was incubated for 2 days in RPMI-1640 medium supplemented with 0.2 ml of 15% serum on a 96-well culture plate. After 0.5 μCi [^3H] thymidine was added to the medium, incubation was continued for a further 18 hours. After the cells were harvested on a glass filter using a cell harvester, the level of [^3H] thymidine taken up into the cells was determined with a liquid scintillation counter. If the stimulation index is 2 or more, we consider that the added peptide is recognized as an antigenic peptide. The stimulation index means a value obtained by dividing the level of [^3H] thymidine taken up into the cells when the peptide was added by the level of [^3H] thymidine taken up into the cells when no peptide was added.
The HLA class II type is considered to vary in every patient. It is thus assumed that a T cell epitope to be recognized would vary depending on the HLA class II type. For this reason, the antigenic peptide that the patients recognized was mapped for the individual patient. […] On the allergen molecule, there are both regions that can be readily recognized and regions that can hardly be recognized, as a T cell epitope, depending on individuals. Moreover, since the proliferation rate of T cells varies depending on a T cell epitope, the epitope map alone makes it difficult to determine what antigenic peptide should be chosen to design the multi-epitope peptide.

[2] = test system: human IgE antibody; test: Reactivity of the multi-epitope peptides with human IgE antibody (fluorescence plate assay); assay type: binding
Description: (§1) The six multi-epitope peptides (C.A.#1 through C.A.#6) obtained in Example 6 were dissolved in 0.2 M acetate buffer solution (pH 4.5). The solution was dispensed in quantities of 0.1 ml/well in a black plate (manufactured by Dainihon Pharmaceutical Co., Ltd.) then allowed to stand at 4° C. overnight. After the antigen solution was removed, the wells were washed three times with a washing solution and the serum (4-fold dilution) from 29 patients with cedar pollinosis and healthy subjects were each added to separate wells. The system was then reacted at 37° C. for 4 hours. After the sera were removed, the wells were washed three times with a washing solution then reacted with anti-human IgE antibody (made by Pharmacia Inc.) at room temperature overnight. After washing three times with a washing solution, a substrate solution containing 0.1 mM 4-methylumbelliferyl-, β-D-galacto-pyranoside/0.01 M phosphate buffer (pH 7.0), 0.1 M NaCl, 1 mM MgCl2, 0.1% NaN, and 0.1% BSA was added, and the solution was incubated at 37° C. for 2 hours. A solution of 0.1 M glycine/NaOH (pH 10.3) was added to the wells to terminate the reaction. Fluorescent intensity was measured using a fluorophotometer (Labsystems). For positive control to each multi-epitope peptide, biotin-labeled rabbit anti-d epitope IgG and peroxidase-labeled streptoavidin (made by Pierce Inc.) were reacted.

[3] = test system: rabbit anti-d epitope IgG; test: Positive control reactivity with rabbit anti-d epitope IgG; assay type: binding; conditions: blank: 112
Description: as §1

[4] = test system: CBF1 mice; test: Inducing immune tolerance by administering cedar pollen allergen to mice; assay type: in vivo; conditions: 300 μg/mouse s.c. twice, then sensitized with 100 μg Cry j 1 + Alum; compared to PBS control group
Description: The detailed mechanism in hyposensitization therapy by which cedar pollen allergen is administered for the treatment is yet unknown. To clarify this mechanism, tests were conducted using mice. Cedar pollen allergen Cry j 1 was subcutaneously administered twice to five CBF1 female mice at intervals of 5 days in a dose of 300 μg/mouse. For control, the same dose of PBS was subcutaneously given to five other female mice. Five days later, the animals were sensitized by subcutaneous injection of 100 μg Cry j 1 together with Alum adjuvant. Ten days later, the lymphocytes were isolated to pool them as the lymphocytes from the control group and as the lymphocytes from the Cry j 1-administered mice. Cry j 1 was added to the pooled lymphocytes in doses of 0, 50 and 150 μg/ml. Incubation was performed for 3 days to collect the culture supernatant. In the control (PBS-administered) mouse group, IL-2 production increased as the concentration of Cry j 1 increased from 0 to 50 and 150 μg/ml. […] The results verify that currently implemented hyposensitization therapy using the cedar pollen allergen is efficacious.

[5] = test system: spleen cells of CBF1 mice immunized with rCry j 2; test: Identifying T cell epitopes in CBF1 mice (spleen cell [3H] thymidine uptake); assay type: cell-based, mouse; conditions: peptides 0.115 μM; Cry j 1 50 μg/ml; rCry j 2 0.3 μg/ml
Description: Eight-week-old male CBF1 mice were boosted (i.p.) three times with 10 μg of recombinant Cry j 2 (rCry j 2) at intervals of two weeks together with an adjuvant (Imject Alum, manufactured by Pierce Inc.). One week after the final booster, the spleen cells (5×10^6 cells) were cultured together with each of the 74 kinds of Cry j 2 overlapping peptides (0.115 μM) consisting of 15 residues in 0.2 ml RPMI medium (supplemented with 10% FCS, 2 mM L-glutamine, 50 U/ml penicillin and 50 μg/ml streptomycin) in each well of a 96-well plate(manufactured by Falcon Inc.). For control, the reactivities with PBS, 50 μg/ml of Cry j 1, and 0.3 μg/ml of rCry j 2 were also observed. Each reagent was distributed in three wells and incubated at 37° C. for 3 days in 5% CO2. For the last 6 hours, pulse labeling was performed with 0.5 μCi/well of [^3H] thymidine. The cells were collected on a glass filter using a cell harvester (Inoteck, Bertold Japan Co., Ltd.). After drying, the level of [^3H] thymidine taken up into the cells was determined using a liquid scintillation counter (TRI-CARB 4530, Packard Japan KK).

B1: Cry j 1: major cedar pollen allergen, 353 amino acids, extracted and purified from cedar pollen (protein)
chain: DNPIDSCWRGDSNWAQNRMKLADCAVGFGSSTMGGKGGDLYTVTNSDDDPVNPAPGTLRYGATRDRPLWIIFSGNMNIKLKMPMYIAGYKTFDGRGAQVYIGNGGPCVFIKRVSNVIIHGLYLYGCSTSVLGNVLINESFGVEPVHPQDGDALTLRTATNIWIDHNSFSNSSDGLVDVTLTSTGVTISNNLFFNHHKVMLLGHDDAYSDDKSMKVTVAFNQFGPNCGQRMPRARYGLVHVANNNYDPWTIYAIGGSSNPTILSEGNSFTAPNESYKKQVTIRIGCKTSSSCSNWVWQSTQDVFYNGAYFVSSGKYEGGNIYTKKEAFNVENGNATPQLTKNAGVLTCSLSKRC
For B1, the “number of T cell epitopes on the molecule that each patient recognized, average” value [1] was 9.8, the “fluorescent intensity (human IgE reactivity)” value ([2]; 14 subjects of 29) was no less than 100 and the “fluorescent intensity (human IgE reactivity)” value ([2]; five subjects of 29) was “nine”. The “fluorescent intensity (human IgE reactivity)” value ([2]; four subjects of 29) was no less than 10, the “fluorescent intensity (human IgE reactivity)” value ([2]; six subjects of 29) was ≥ 1,000 and the “fluorescent intensity with rabbit anti-d epitope peptide IgG” value [3] was 230. For the same molecule, the “IL-2 production of lymphocytes restimulated with Cry j 1” value [4] was “obviously reduced” and the “reactivity of spleen cells ([3H] thymidine uptake)” value [5] was “did not react”.

— patent US6719976B1, “Peptide-based immunotherapeutic agent for treating allergic diseases” (Meiji Milk Products Co., Ltd., priority 1996, dated 2004)
